Laboratory results from patent publication US5858728, “Monoclonal antibody against LPS core” (Common Services Agency, dated 1999).
Changes are numbered by the printed parent chain.

B1: murine monoclonal antibody WN1 222-5 (antibody, V domains shown)
VH: EVKLVESGGGLVQPGGSLSLSCAASGFTFSDYYMTWVRQAPGKAPEWLALIRNKRNGDTAEYSASVKGRFTISRDYSRSILHLQMNALRTEDSATYYCVRQGRGYTLDYWGQGTSVTVSS
VL: DIQMNQSPSSLSASLGDTISITCRASQNINIWLSWYQQKPGNVPKLLIYKASNLHTGVPSRFSGSGSGTDFTLIISSLQPEDIATYYCLQGQSYPRTFGGGTKLEIK
B2: murine monoclonal antibody WN1 58-9 (antibody, V domains shown)
VH: EVKLVESGGGLVQPGGSLRLSCAASGFTFIDYYMTWVRHPPGEAPEWLALIRNYRNGDTAEYSASVRGRFTISRDDSQSILYLQMNALRAEDSATYYCVRQGRGYTLDYWGQGTSVTVSS
VL: B1 VL with S20T, S26R, Q27L, P40A, V43I, Y49S, I74T, Q79R

Target: bovine serum albumin (bovine, UniProt P02769)
Assay: ELISA, plate coated with BSA as negative control (panel of purified LPS)
Protocol: Microtitre plates (flat bottomed; microtest III flexible assay plates: Becton Dickinson, Falcon 3912) are coated with purified LPS at 2 µg/ml in coating buffer (diethylenebarbituric acid-Na salt 30 mM. Na acetate 30 mM, NaCl 116 mM; pH 4.5). 50 µl aliquots of the LPS solution are distributed into each well. Unrelated protein (BSA, 2% in PBS pH 7.2/0.02% sodium azide) is used to determine non-specific binding. Plates are incubated for 1 hr at 37° C. and then overnight at 4° C. in a humidified chamber. Plates are washed 4 times with a washing solution i.e. phosphate buffered saline (PBS) pH 7.2, 0.05% vol/vol Tween 20, 0.02% sodium azide. Plates are blocked with 250 µl/well of 2% BSA in PBS/sodium azide 0.02% for 3 hrs at room temperature. Plates are washed again.
Antibody solutions are prepared in PBS/BSA 2%/sodium azide 0.02% at various dilutions, e.g. 1 µg/ml, 100 ng/ml, 10 ng/ml and 1 ng/ml. 50 µl aliquots of these solutions are distributed in the wells of the precoated plates. Incubation is carried out overnight at room temperature. […] After 1 hr, absorbance is read at 405 nm using a Titertek Multiskan ELISA reader (MCC/340, Flowlabs).

Binder | binding result
B1 | no binding (tested: 100 ng/ml)
B2 | no binding (tested: 100 ng/ml)
